Experiments:
[1] = target: T1, Rex-His6 (Streptomyces avermitilis ATCC31267) (UniProt Q82E78); assay: EMSA; conditions: EMSA: DIG Gel Shift Kit (Roche) binding buffer, 1 ug poly[d(I-C)] in 20 ul, 30 min at 25 C, 5% native PAGE in 0.5x TBE; footprinting: 400 ng DNA in 25 ul …
T1 sequence: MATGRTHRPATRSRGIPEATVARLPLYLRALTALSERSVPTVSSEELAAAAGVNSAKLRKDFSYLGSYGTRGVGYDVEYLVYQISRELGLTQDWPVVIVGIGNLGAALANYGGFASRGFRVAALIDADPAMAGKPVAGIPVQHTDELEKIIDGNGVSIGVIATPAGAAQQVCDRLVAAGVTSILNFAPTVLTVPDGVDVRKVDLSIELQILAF

[2] = target: T1, Rex-His6 (Streptomyces avermitilis ATCC31267); assay: DNase I footprinting; conditions: EMSA: DIG Gel Shift Kit (Roche) binding buffer, 1 ug poly[d(I-C)] in 20 ul, 30 min at 25 C, 5% native PAGE in 0.5x TBE; footprinting: 400 ng DNA in 25 ul …

Sequence: GAGTCTCTACGTGGCGATCGAGACGGCCCGCAACACCGGCCTCCACAGAGAGCCAGAACCCCTCCTCAATCCAAAGGACCACGTCAGTCCGTCTGACGATCGGCCCTTCACTTGTTGAGGGATTCGTGAAAGCGTTCACATTCACAAGCAACCTGAATGTAATACCAAGGAGAGGTAGCAGCCATGGA (double strand) [wblE promoter EMSA probe]
- binding [1]: binds

Sequence: CAGTTGCCACGGTGCTCCTGCGGGTAGCGCGGGGCTGCAGGCGGTCACACGTACCTAGACCGCCCCGTCGAAAGCAGGCTATGTCTTTGTGAACGCGTGCACAAAGATAGTGTCCGATTTGCCCGGCCAACGTGACCGGGGTCACGCGCCCCCGGCGTATGCGTATGGAACCGGCACACAGGCGCCTTCGTTCCTCACTCGACGGGGGCAAAACCGCACACACTCCTCAACGATCCACGCCCCCCGAGACCAAACCGCCCCCGATCCTAAGCGACTTTCCGGGCTGTTTGGACTACTC (double strand) [rex promoter probe]
- binding [2]: binds
- binding [1]: binds

Sequence: GCTTCATGATCCTTCGCCAGGTGGCAGAGATCACAAACTCCTTACTTACCCCCGTGTCGCAGATCACAGACCGCCGGGCATAGGATGCGCAGCAGTTGGGCTTGTGACCTGCTTCACATGTACGCGATCTTCGTCGGGACGCACGGGGTTCGTGGGACGTGTGAGGCGGGAGTGCTCGCCCGACGCAACCTCCCCCAAGGTCTCGGCTCCGCTCGACCAGGGGGACCCCCATGCAGTCAGTGCCGACTGAGAGGAGCGAGGAGCGTGAA (double strand) [nuoA1 promoter EMSA probe]
- binding [1]: binds

Source: article PMC5355995
